Data on 1 substance can be found in patent US20050053913A1.

The target of the experiment is AD-E2F1 (GAL4-AD fused to AA 159-437 of E2F1) (yeast; human) (UniProt P04386). Description: cell-based or functional assay.

With “DB-DP1 (GAL4-DB fused to DP1) (from UniProt P04386 1-147; Q14186 1-410)”, the growth on medium lacking histidine with 3AT (GAL1:HIS3 reporter) was less than 100 mM 3AT.
